By Km is commonly meant the substrate concentration at which the rate is half of its maximum.

The values that follow come from article PMC3568461.

This series deals with CCCC[C@H](NC(=O)c1ccccc1)C(=O)N[C@@H](CCCCN)C(=O)N[C@@H](CCCNC(=N)N)C(=O)N[C@@H](CCCNC(=N)N)C(=O)Nc1ccc2c(C)cc(=O)oc2c1. The series is described as follows: In vitro WNV protease assay with tetra-peptide substrate. The following applies: other: tetra-peptide substrate; pH 9.5; 25.0 °C. Type of series: biochemical, West Nile virus.

On to “WNV NS2B-NS3 protease (West Nile virus strain NY-99)”, for which the Michaelis constant (Km) is on record as 24.56 ± 1.43 µM.
